Experimental data reported in patent US20100285597A1 (UNIVERSITY OF ROCHESTER, published 2010).

Biological target: T1, BACE1 (UniProt P56817 46-501, limits assumed)
T1 construct: Detected as monomer and dimer in the co-immunoprecipitates; also called β-secretase
Experiment: co-immunoprecipitation from HEK 293 lysates with nectin-1 cytoplasmic specific antibody, anti-BACE1 Western blot
Protocol: To define the minimal region within the ectodomain of nectin-1 required for BACE1 interaction, immunoprecipitations between the nectin-1 truncation mutants and BACE1 were performed. BACE1 and full length or truncated nectin-1 were co-expressed in HEK 293 cells and harvested 48 hr. after transfection. To confirm to the efficiencies of the co-transfections, equal volumes of cell lysate were loaded on SDS-PAGE gels and analyzed by Western blot. Transfection efficiency was similar for nectin-1 and its derivates (FIG. 10A) and BACE1 (FIG. 10B). Immunoprecipitation was performed with a nectin-1 cytoplasmic specific antibody and precipitates were analyzed on two separate 10% SDS-PAGE. Western blots were probed with anti-nectin-1 (FIG. 10C) or anti-BACE1 (FIG. 10D) antibodies. The nectin-1 antibody directly immunoprecipitated the respective nectin-1 polypeptides and processed CTFs (FIG. 10C). Furthermore, BACE1, both monomer and dimer, was immunoprecipitated by the nectin-1 antibody, confirming the association of BACE1 with nectin-1. Two truncation mutants Δ28-250 and Δ28-300, interacted with BACE1 very strongly.

T1 sequence (P56817 46-501 limits assumed): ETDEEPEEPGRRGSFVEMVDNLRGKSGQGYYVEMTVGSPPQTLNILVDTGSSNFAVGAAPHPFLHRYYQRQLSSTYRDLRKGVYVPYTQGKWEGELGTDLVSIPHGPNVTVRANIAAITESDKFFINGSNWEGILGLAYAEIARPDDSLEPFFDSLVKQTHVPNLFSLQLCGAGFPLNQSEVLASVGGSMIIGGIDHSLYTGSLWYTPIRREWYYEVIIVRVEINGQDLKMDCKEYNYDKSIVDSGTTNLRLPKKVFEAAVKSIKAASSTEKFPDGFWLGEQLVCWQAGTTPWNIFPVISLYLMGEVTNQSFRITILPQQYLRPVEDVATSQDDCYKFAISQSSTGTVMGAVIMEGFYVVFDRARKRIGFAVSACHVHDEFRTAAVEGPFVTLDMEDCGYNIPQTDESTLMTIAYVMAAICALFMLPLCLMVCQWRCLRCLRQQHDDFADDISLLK

B1: nectin-1 truncation mutant Δ28-349 (receptor)
chain: PTAIIGGVAGSILLVLIVVGGIVVALRRRRHTFKGDYSTKKHVYGNGYSKAGIPQHHPPMAQNLQYPDDSDDEKKAGPLGGSSYEEEEEEEEGGGGGERKVGGPHPKYDEDAKRPYFTVDEAEARQDGYGDRTLGYQYDPEQLDLAENMVSQNDGSFISKKEWYV
notes: see m5; not shown: flag tag at the C-terminus
- binding result: no binding
